Experimental data published in patent US20180245075.

How the values were obtained:
[1] = target: T1, DpnI binding domain-VP64 (synR-VP64) (Streptococcus pneumoniae) (UniProt P0A459); assay: cell_activity; settings: N6-methyladenine at A of GATC; integrated interspersed reporter with synI; >100-fold episomal with ZF-Dam(WT)
T1 sequence: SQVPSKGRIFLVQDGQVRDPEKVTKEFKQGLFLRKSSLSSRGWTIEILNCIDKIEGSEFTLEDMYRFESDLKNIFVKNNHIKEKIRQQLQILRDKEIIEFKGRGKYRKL

[2] = target: T2, DpnI binding domain-Dam(R95A) (synRW) (Streptococcus pneumoniae / Escherichia coli) (UniProt P0AEE8); assay: cell_activity; settings: N6-methyladenine at A of GATC; with inducible writer and DpnI-VP64; mCherry-Dam(R95A) gave no increase
T2 sequence: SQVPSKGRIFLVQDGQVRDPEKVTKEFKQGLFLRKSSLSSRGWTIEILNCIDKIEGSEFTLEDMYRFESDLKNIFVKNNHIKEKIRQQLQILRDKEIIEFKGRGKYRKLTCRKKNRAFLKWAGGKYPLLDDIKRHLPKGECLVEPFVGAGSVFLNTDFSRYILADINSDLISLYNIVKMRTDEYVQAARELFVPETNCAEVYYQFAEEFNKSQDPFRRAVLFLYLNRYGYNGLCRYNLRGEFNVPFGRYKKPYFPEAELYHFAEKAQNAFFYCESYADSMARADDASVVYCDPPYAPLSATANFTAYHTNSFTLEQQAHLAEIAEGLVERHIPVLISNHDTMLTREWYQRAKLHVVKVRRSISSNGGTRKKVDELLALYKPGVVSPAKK

GATC (double strand) [adenine-methylated GATC sites of reporter]
activity (fold GFP activation) [1]: 30 | activity (fold increase in GFP activation) [2]: 2
